The term Kd denotes the constant that tells how readily two partners part at equilibrium. Lower therefore signals tighter binding.

Our source for the Kd values is US9650447 (dated 2017).

In assay [1] the target is T1, C3d (human, UniProt P01024). Nature of the assay: other (NMR titration, weak site).
Assay [2] concerns the target T1, C3d. Nature of the assay: ITC, two-site fit, tight site.
Assay [3] deals with T1, C3d. In words: ITC, two-site fit, weak site. For orientation: ITC needs no label: the signal is the heat of the interaction.
Assay [4] deals with T1, C3d. Nature of the assay: other (NMR titration, tight site, upper limit).
In assay [5] the target is T2, EBV gp350 (Epstein-Barr virus, UniProt P03200).
T2 chain: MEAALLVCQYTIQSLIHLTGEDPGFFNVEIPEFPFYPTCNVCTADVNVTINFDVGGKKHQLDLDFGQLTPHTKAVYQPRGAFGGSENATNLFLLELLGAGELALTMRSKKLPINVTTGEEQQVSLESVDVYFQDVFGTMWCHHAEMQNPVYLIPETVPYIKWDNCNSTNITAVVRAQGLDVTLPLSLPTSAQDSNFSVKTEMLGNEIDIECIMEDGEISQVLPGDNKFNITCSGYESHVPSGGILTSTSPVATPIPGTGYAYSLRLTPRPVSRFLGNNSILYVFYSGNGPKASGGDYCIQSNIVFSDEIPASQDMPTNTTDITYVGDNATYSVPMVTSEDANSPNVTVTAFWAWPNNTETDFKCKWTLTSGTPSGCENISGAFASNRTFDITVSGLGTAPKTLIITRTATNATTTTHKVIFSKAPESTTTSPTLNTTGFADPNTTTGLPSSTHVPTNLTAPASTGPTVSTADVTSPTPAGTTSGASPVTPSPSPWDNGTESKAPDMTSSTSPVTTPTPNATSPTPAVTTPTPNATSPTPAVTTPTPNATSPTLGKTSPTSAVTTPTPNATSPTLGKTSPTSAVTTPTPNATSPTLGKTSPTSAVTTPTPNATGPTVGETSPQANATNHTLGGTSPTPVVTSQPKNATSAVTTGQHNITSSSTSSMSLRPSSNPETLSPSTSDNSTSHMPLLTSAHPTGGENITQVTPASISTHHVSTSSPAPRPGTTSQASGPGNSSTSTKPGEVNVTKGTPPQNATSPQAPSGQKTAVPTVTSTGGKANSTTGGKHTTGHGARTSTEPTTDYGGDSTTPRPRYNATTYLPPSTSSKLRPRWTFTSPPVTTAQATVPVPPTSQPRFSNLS
Nature of the assay: other (NMR titration, upper limit).

The target of assay [6] is T2, EBV gp350. Nature of the assay: ITC.

Bounds are passed on as bounds.

T1 sequence (P01024 1002-1303): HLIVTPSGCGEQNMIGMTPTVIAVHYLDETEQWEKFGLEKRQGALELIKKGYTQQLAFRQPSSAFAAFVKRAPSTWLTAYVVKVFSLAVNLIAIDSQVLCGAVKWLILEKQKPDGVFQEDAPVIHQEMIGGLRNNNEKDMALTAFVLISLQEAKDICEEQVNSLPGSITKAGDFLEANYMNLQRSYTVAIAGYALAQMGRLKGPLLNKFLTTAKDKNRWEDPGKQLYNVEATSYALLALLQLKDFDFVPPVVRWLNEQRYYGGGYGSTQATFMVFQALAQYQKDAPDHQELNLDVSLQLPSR

B1: human CR2 SCR1-2 (protein)
chain: ISCGSPPPILNGRISYYSTPIAVGTVIRYSCSGTFRLIGEKSLLCITKDKVDGTWDKPAPKCEYFNKYSSCPEPIVPGGYKIRGSTPYRHGDSVTFACKTNFSMNGNKSVWCQANNMWGPTRLPTCVS
Turning to B1, the Kd was 130 µM with C3d [1]; 0.13 µM with C3d [2]; 160 µM with C3d [3]; less than 45 µM in the assay with C3d [4]; less than 60 µM in the assay with EBV gp350 [5]; 0.014 µM with EBV gp350 [6].
